Reference: US20220363757A1

Assays:
Assay in all cases: SPR, Fab over captured mutant LAG-3-Fc
[1] = target: human LAG-3 domain 1-2 Fc fusion, chimeric construct #20 (mutated region AA 123-131) (human) (UniProt P18627)
[2] = target: human LAG-3 domain 1-2 Fc fusion, point mutation #7 P49A (human) (UniProt P18627)
[3] = target: human LAG-3 domain 1-2 Fc fusion, point mutation #75 R141A (human) (UniProt P18627)
[4] = target: human LAG-3 domain 1-2 Fc fusion, point mutation #61 R119A (human) (UniProt P18627)
[5] = target: human LAG-3 domain 1-2 Fc fusion, point mutation #60 P118A (human) (UniProt P18627)
[6] = target: human LAG-3 domain 1-2 Fc fusion, point mutation #18 P67A (human) (UniProt P18627)
[7] = target: human LAG-3 domain 1-2 Fc fusion, chimeric construct #16 (mutated region AA 98-105) (human) (UniProt P18627)
[8] = target: human LAG-3 domain 1-2 Fc fusion, point mutation #57 R113A (human) (UniProt P18627)
[9] = target: human LAG-3 domain 1-2 Fc fusion, point mutation #76 D143A (human) (UniProt P18627)
[10] = target: human LAG-3 domain 1-2 Fc fusion, chimeric construct #11 (mutated region AA 74-82) (human) (UniProt P18627)
[11] = target: human LAG-3 domain 1-2 Fc fusion, point mutation #14 T62A (human) (UniProt P18627)
[12] = target: human LAG-3 domain 1-2 Fc fusion, chimeric construct #2 (mutated region AA 29-30) (human) (UniProt P18627)
[13] = target: human LAG-3 domain 1-2 Fc fusion, chimeric construct #24 (mutated region AA 148-154) (human) (UniProt P18627)
[14] = target: human LAG-3 domain 1-2 Fc fusion, point mutation #16 H65A (human) (UniProt P18627)
[15] = target: human LAG-3 domain 1-2 Fc fusion, chimeric construct #10 (mutated region AA 70-77) (human) (UniProt P18627)
[16] = target: human LAG-3 domain 1-2 Fc fusion, point mutation #44 R97A (human) (UniProt P18627)
[17] = target: human LAG-3 domain 1-2 Fc fusion, point mutation #17 Q66A (human) (UniProt P18627)
[18] = target: human LAG-3 domain 1-2 Fc fusion, point mutation #77 R148A (human) (UniProt P18627)
[19] = target: human LAG-3 domain 1-2 Fc fusion, point mutation #1 A40S (human) (UniProt P18627)
[20] = target: human LAG-3 domain 1-2 Fc fusion, point mutation #50 P106A (human) (UniProt P18627)
[21] = target: human LAG-3 domain 1-2 Fc fusion, point mutation #73 R137A (human) (UniProt P18627)
[22] = target: human LAG-3 domain 1-2 Fc fusion, point mutation #74 P138A (human) (UniProt P18627)
[23] = target: human LAG-3 domain 1-2 Fc fusion, point mutation #54 R110A (human) (UniProt P18627)
[24] = target: human LAG-3 domain 1-2 Fc fusion, point mutation #78 R154A (human) (UniProt P18627)
[25] = target: human LAG-3 domain 1-2 Fc fusion, point mutation #28 A81S (human) (UniProt P18627)
[26] = target: human LAG-3 domain 1-2 Fc fusion, point mutation #6 T47A (human) (UniProt P18627)
[27] = target: human LAG-3 domain 1-2 Fc fusion, point mutation #59 Q117A (human) (UniProt P18627)
[28] = target: human LAG-3 domain 1-2 Fc fusion, point mutation #32 H85A (human) (UniProt P18627)
[29] = target: human LAG-3 domain 1-2 Fc fusion, chimeric construct #25 (mutated region AA 154-158) (human) (UniProt P18627)
[30] = target: human LAG-3 domain 1-2 Fc fusion, chimeric construct #6 (mutated region AA 48-55) (human) (UniProt P18627)
[31] = target: human LAG-3 domain 1-2 Fc fusion, point mutation #8 Q51A (human) (UniProt P18627)
[32] = target: human LAG-3 domain 1-2 Fc fusion, point mutation #31 P84A (human) (UniProt P18627)
[33] = target: human LAG-3 domain 1-2 Fc fusion, chimeric construct #23 (mutated region AA 148-152) (human) (UniProt P18627)

Measured: KD mutant/KD wild type

Chain of human LAG-3 domain 1-2 Fc fusion, point mutation #50 P106A (human) (P18627 23-266 P106A): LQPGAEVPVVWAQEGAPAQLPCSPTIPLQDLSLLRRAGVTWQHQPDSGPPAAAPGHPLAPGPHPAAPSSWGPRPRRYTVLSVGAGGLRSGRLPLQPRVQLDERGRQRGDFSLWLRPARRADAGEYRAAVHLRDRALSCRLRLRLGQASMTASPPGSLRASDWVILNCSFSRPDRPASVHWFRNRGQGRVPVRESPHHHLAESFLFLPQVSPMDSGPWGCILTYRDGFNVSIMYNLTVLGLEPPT
Chain of human LAG-3 domain 1-2 Fc fusion, point mutation #7 P49A (human) (P18627 23-266 P49A): as the sequence (P18627 23-266 P106A) above, with P27A, A84P counted along it
Chain of human LAG-3 domain 1-2 Fc fusion, point mutation #75 R141A (human) (P18627 23-266 R141A): as the sequence (P18627 23-266 P106A) above, with A84P, R119A counted along it
Chain of human LAG-3 domain 1-2 Fc fusion, chimeric construct #25 (mutated region AA 154-158) (human) (P18627 other isoform, or with tags, fused parts or gaps mutant): as the sequence (P18627 23-266 P106A) above, with A84P, R132P, A135D, L136F counted along it
Chain of human LAG-3 domain 1-2 Fc fusion, chimeric construct #10 (mutated region AA 70-77) (human) (P18627 other isoform, or with tags, fused parts or gaps mutant limits assumed): as the sequence (P18627 23-266 P106A) above, with G48D, P49Q, A52S, A53I, G55A, A84P counted along it
Chain of human LAG-3 domain 1-2 Fc fusion, point mutation #57 R113A (human) (P18627 23-266 R113A): as the sequence (P18627 23-266 P106A) above, with A84P, R91A counted along it
Chain of human LAG-3 domain 1-2 Fc fusion, point mutation #44 R97A (human) (P18627 23-266 R97A): as the sequence (P18627 23-266 P106A) above, with R75A, A84P counted along it
Chain of human LAG-3 domain 1-2 Fc fusion, point mutation #16 H65A (human) (P18627 23-266 H65A): as the sequence (P18627 23-266 P106A) above, with H43A, A84P counted along it
Chain of human LAG-3 domain 1-2 Fc fusion, point mutation #77 R148A (human) (P18627 23-266 R148A): as the sequence (P18627 23-266 P106A) above, with A84P, R126A counted along it
Chain of human LAG-3 domain 1-2 Fc fusion, point mutation #59 Q117A (human) (P18627 23-266 Q117A): as the sequence (P18627 23-266 P106A) above, with A84P, Q95A counted along it
Chain of human LAG-3 domain 1-2 Fc fusion, point mutation #1 A40S (human) (P18627 23-266 A40S): as the sequence (P18627 23-266 P106A) above, with A18S, A84P counted along it
Chain of human LAG-3 domain 1-2 Fc fusion, point mutation #28 A81S (human) (P18627 23-266 A81S): as the sequence (P18627 23-266 P106A) above, with A59S, A84P counted along it
Chain of human LAG-3 domain 1-2 Fc fusion, point mutation #17 Q66A (human) (P18627 23-266 Q66A): as the sequence (P18627 23-266 P106A) above, with Q44A, A84P counted along it
Chain of human LAG-3 domain 1-2 Fc fusion, point mutation #54 R110A (human) (P18627 23-266 R110A): as the sequence (P18627 23-266 P106A) above, with A84P, R88A counted along it
Chain of human LAG-3 domain 1-2 Fc fusion, chimeric construct #23 (mutated region AA 148-152) (human) (P18627 other isoform, or with tags, fused parts or gaps mutant): as the sequence (P18627 23-266 P106A) above, with A84P, R126H, A128F, H130R counted along it
Chain of human LAG-3 domain 1-2 Fc fusion, chimeric construct #11 (mutated region AA 74-82) (human) (P18627 other isoform, or with tags, fused parts or gaps mutant): as the sequence (P18627 23-266 P106A) above, with A52S, A53I, G55A, H56L, P57D, A59L, P60Q, A84P counted along it
Chain of human LAG-3 domain 1-2 Fc fusion, chimeric construct #24 (mutated region AA 148-154) (human) (P18627 other isoform, or with tags, fused parts or gaps mutant): as the sequence (P18627 23-266 P106A) above, with A84P, R126H, A128F, H130R, R132P counted along it
Chain of human LAG-3 domain 1-2 Fc fusion, point mutation #61 R119A (human) (P18627 23-266 R119A): as the sequence (P18627 23-266 P106A) above, with A84P, R97A counted along it
Chain of human LAG-3 domain 1-2 Fc fusion, chimeric construct #20 (mutated region AA 123-131) (human) (P18627 23-266, stated change not applied): as the sequence (P18627 23-266 P106A) above, with A84P counted along it

Fab fragment of 25F7-Lag3.5 analogue
1.4 fold: [30]
1.2 fold: [12] | [14] | [18]
0.6 fold: [32]
1.7 fold: [7]
14.1 fold: [28]
1.3 fold: [1] | [11]
0.7 fold: [13] | [25] | [29]
1 fold: [9] | [15] | [20] | [21] | [22]
0.9 fold: [16] | [17] | [23]
1.1 fold: [2] | [4] | [6] | [10] | [19]
0.8 fold: all other assays above
